Measured values from patent US20150283263A1 (ADC THERAPEUTICS S A, published 2015).

What was measured:
CD25 [1] = biological target: T1, CD25 (human, UniProt P01589 22-272); assay: flow cytometry on SU-DHL-1 cells (surface CD25), average of four experiments
T1 construct: whole, on cells; Endogenous CD25 on cell lines; also called surface CD25 on Karpas299 and SU-DHL-1 cells
T1 sequence (looked up): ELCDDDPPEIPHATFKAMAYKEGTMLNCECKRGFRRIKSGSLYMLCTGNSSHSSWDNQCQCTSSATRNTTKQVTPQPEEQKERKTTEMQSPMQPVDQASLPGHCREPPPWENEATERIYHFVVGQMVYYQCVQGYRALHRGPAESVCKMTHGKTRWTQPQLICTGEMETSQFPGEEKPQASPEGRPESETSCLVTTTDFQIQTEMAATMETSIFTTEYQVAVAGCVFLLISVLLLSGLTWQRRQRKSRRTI
Experimental: (§1) Karpas299 and SU-DHL-1 anaplastic large cell lymphoma (ALCL)-derived cell lines have been previously reported to express CD25 (2,3). To confirm their expression profile, CD25 surface expression was analyzed by flow cytometry.
(§2) Surface CD25 expression on Karpas and SU-DHL-1 was determined by flow cytometry. Graphs represent the average of three (Karpas299) or four independent experiments (SU-DHL-1). EC₅₀ values are reported in ng/ml.

CD25 [2] = biological target: T1, CD25; assay: flow cytometry on Karpas299 cells (surface CD25), average of three experiments
Experimental: as §1, §2

EC50 (CD25 [1]): 0.0341 µg/mL | EC50 (CD25 [2]): 0.0202 µg/mL
B1: HuMax-TAC (antibody, IgG1, V domains shown)
VH: QVQLVQSGAEVKKPGSSVKVSCKASGGTFSRYIINWVRQAPGQGLEWMGRIIPILGVENYAQKFQGRVTITADKSTSTAYMELSSLRSEDTAVYYCARKDWFDYWGQGTLVTVSS
VL: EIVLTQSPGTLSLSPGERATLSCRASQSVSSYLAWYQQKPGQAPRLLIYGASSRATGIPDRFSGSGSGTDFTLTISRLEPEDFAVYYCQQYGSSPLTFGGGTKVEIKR
notes: also called AB12; Antibody AB12
